By pKd is commonly meant −log10 of the Kd, conventionally taken in molar units.

We go through one substance from publication PMC3026963.

In this assay the target is protein kinase CK2 catalytic subunit α (human) (UniProt P68400).

pKd: −log10 of the molar value.

protein kinase CK2 catalytic subunit α (human), sequence (P68400 whole entry): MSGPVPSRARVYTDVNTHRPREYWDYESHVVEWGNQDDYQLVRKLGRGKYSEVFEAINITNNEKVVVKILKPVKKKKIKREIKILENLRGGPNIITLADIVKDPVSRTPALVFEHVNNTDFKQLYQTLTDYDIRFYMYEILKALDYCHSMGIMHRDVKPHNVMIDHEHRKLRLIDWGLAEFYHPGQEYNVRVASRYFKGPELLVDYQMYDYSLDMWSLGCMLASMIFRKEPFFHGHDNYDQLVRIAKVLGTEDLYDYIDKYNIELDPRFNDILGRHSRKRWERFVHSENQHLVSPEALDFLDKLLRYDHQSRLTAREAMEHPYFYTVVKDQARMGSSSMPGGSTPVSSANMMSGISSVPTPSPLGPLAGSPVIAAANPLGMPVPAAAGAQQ
β-peptide(181–203), sequence (P67870 181-203): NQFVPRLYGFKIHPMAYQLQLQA

For “β-peptide(181–203) (from UniProt P67870 181-203)”, the pKd was 5.07.
